Reference: patent US20260028383A1 (KINE BIOTECH, published 2026)
Changes are numbered by the printed parent chain. Numbers in names are those of the source. Read-outs that look alike come from different tables or passages of the source.

B1: IL-2 variant IL-2_#3 (F42V, Y45A, L72N, C125G) (ligand)
chain: APTSSSTKKTQLQLEHLLLDLQMILNGINNYKNPKLTRMLTVKFAMPKKATELKHLQCLEEELKPLEEVLNNAQSKNFHLRPRDLISNINVIVLELKGSETTFMCEYADETATIVEFLNRWITFGQSIISTLT
B2: IL-2 variant IL-2_#8 (F42V, Y45S, L72N, C125G) (ligand)
chain: B1 chain with A45S
B3: IL-2 variant IL-2_#9 (F42H, Y45D, L72I, C125G) (ligand)
chain: B1 chain with V42H, A45D, N72I
B4: IL-2 variant IL-2_#12 (F42C, Y45N, L72V) (ligand)
chain: B1 chain with V42C, A45N, N72V, G125C
B5: IL-2 variant IL-2_#28 (F42A, Y45D, L72D) (ligand)
chain: B1 chain with V42A, A45D, N72D, G125C
B6: IL-2 variant IL-2_#31 (F42A, Y45M, L72N) (ligand)
chain: B1 chain with V42A, A45M, G125C
B7: mutant IL-2, IL-2v (AAG), with F42A, Y45A, and L72G substitutions of IL-2 (F. Hoffmann-La Roche Ltd) (ligand)
chain: B1 chain with V42A, N72G, G125C

Assays:
Experiment in all cases: cell-based or functional assay
[1] = target: high-affinity IL-2R (containing the α/β/γc-subunits of the IL-2R) expressed on CTLL-2 cells (mouse) (UniProt P01590)
[2] = target: high-affinity IL-2R (containing the α/β/γc-subunits of the IL-2R) expressed on CTLL-2 cells (mouse) (UniProt P01590); remark: listed apart in the source
[3] = target: T1, intermediate-affinity IL-2R (containing the β/γc-subunits of the IL-2R) expressed on HH cells (human, UniProt P14784 27-551; P31785 23-369)
T1 sequence (looked up) 1: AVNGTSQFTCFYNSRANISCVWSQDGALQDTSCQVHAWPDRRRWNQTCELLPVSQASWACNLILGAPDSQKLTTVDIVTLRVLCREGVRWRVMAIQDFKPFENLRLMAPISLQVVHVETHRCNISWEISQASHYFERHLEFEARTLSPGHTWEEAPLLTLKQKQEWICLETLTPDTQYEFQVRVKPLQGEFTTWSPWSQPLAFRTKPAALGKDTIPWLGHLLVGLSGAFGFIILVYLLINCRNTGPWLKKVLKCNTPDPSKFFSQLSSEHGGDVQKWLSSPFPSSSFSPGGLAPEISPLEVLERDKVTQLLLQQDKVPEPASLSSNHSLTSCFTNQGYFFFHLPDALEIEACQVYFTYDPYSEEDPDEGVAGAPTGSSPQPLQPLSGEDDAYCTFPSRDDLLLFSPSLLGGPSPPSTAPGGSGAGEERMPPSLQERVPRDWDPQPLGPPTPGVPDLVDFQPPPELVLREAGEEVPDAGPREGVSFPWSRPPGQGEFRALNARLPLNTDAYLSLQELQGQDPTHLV
T1 sequence (looked up) 2: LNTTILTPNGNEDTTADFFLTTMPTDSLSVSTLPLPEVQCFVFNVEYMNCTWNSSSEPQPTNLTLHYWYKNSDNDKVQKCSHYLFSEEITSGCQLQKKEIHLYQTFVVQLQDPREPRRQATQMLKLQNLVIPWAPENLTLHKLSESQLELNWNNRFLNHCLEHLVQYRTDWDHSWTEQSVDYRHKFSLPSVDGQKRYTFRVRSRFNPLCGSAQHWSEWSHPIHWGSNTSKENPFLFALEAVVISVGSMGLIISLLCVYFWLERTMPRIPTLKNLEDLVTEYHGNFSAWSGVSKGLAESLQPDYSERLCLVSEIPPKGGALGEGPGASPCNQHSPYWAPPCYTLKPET

[4] = target: T1, intermediate-affinity IL-2R (containing …); remark: listed apart in the source
[5] = target: T2, high-affinity IL-2R (containing the α/β/γc-subunits of the IL-2R) expressed on CTLL-2 cells (mouse, UniProt P01590 22-268; P16297 27-539; P34902 23-369)
T2 sequence (looked up) 1: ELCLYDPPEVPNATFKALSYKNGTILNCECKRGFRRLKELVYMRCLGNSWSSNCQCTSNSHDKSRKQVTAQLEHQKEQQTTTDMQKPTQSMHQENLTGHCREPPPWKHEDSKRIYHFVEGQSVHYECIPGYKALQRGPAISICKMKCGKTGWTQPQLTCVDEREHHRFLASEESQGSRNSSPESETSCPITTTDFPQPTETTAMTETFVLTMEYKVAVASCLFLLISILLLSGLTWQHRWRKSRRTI
T2 sequence (looked up) 2: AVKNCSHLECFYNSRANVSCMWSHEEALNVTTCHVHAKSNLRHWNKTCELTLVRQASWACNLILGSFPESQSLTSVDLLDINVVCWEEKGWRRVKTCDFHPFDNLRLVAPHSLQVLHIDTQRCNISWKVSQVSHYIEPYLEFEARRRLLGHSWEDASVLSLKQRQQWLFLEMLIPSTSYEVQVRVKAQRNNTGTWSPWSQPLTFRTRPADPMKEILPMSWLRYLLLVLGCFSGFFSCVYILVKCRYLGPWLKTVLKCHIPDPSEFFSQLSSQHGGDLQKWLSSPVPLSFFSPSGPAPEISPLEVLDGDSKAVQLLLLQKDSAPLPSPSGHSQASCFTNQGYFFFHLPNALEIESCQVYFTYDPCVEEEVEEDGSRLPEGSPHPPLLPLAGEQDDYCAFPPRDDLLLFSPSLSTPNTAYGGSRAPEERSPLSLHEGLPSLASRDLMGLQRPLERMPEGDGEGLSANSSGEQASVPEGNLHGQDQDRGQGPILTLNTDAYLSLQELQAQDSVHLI
T2 sequence (looked up) 3: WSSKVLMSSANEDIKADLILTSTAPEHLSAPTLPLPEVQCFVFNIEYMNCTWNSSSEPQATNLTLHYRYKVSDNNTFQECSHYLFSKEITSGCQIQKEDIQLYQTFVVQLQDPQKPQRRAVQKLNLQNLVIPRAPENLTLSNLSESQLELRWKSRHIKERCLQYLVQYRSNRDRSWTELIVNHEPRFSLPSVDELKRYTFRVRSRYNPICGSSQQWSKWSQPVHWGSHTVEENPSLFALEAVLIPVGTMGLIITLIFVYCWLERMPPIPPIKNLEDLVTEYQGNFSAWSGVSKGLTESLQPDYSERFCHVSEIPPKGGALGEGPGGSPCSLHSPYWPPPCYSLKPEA

[6] = target: T1, intermediate-affinity IL-2R (containing …); remark: listed apart in the source
[7] = target: T2, high-affinity IL-2R (containing the …); remark: listed apart in the source
[8] = target: T1, intermediate-affinity IL-2R (containing …); remark: listed apart in the source
[9] = target: T2, high-affinity IL-2R (containing the …); remark: listed apart in the source
[10] = target: T1, intermediate-affinity IL-2R (containing …); remark: listed apart in the source

Row | Molecule | EC50 (HH/CTLL-2): EC50 on HH cells (intermediate-affinity IL-2R) divided by EC50 on CTLL-2 cells (high-affinity IL-2R) [3] [ratio] | EC50 of pSTAT-5 induction in HH cells (flow cytometry) [4] [nM] | EC50 of pSTAT-5 induction in CTLL-2 cells (flow cytometry) [5] [nM] | also measured
1 | wild-type IL-2 (proleukin) (from UniProt P60568 21-153) (ligand) |  |  |  | EC50 (CTLL-2): pSTAT-5 induction in CTLL-2 cells (flow cytometry) [1]: 0.2 nM; EC50 of pSTAT-5 induction in CTLL-2 cells (flow cytometry) [1]: 0.17 nM; EC50 of pSTAT-5 induction in CTLL-2 cells (flow cytometry) [2]: 0.231 nM
2 | B1 | 0.22 | 9.6 | 44.1 | 
3 | B2 | 0.75 | 90.2 | 120 | 
4 | B3 | 1.79 | 17.9 | 10 | 
5 | B4 | 0.24 | 0.556 | 2.32 | 
6 | B5 |  |  |  | EC50 (HH/CTLL-2): EC50 on HH cells (intermediate-affinity IL-2R) divided by EC50 on CTLL-2 cells (high-affinity IL-2R) [6]: 0.94 ratio; EC50 of pSTAT-5 induction in CTLL-2 cells (flow cytometry) [7]: 9.56 nM; EC50 of pSTAT-5 induction in HH cells (flow cytometry) [8]: 8.95 nM
7 | B6 |  |  |  | EC50 (HH/CTLL-2): EC50 on HH cells (intermediate-affinity IL-2R) divided by EC50 on CTLL-2 cells (high-affinity IL-2R) [6]: 0.05 ratio; EC50 of pSTAT-5 induction in CTLL-2 cells (flow cytometry) [7]: 2.02 nM; EC50 of pSTAT-5 induction in HH cells (flow cytometry) [8]: 0.11 nM
8 | B7 |  |  |  | EC50 (CTLL-2): pSTAT-5 induction in CTLL-2 cells (flow cytometry) [9]: 54.1 nM; EC50 (HH): pSTAT-5 induction in HH cells (flow cytometry) [10]: 2.01 nM; EC50 (HH/CTLL-2): EC50 on HH cells (intermediate-affinity IL-2R) divided by EC50 on CTLL-2 cells (high-affinity IL-2R) [10]: 0.037 ratio
